Data taken from patent publication US6458943 (INSTITUT NATIONAL DE LA SANTE ET DE LA RECHERCHE MEDICALE, dated 2002).

B1: mD52 bait (GAL4 DNA-binding domain fusion, pAS2-1mD52) (other, not shown: small tags and cut ends)
chain: MDRGEQGLLKTEPVAEEGEDAVTMLSAPEALTEEEQEELRRELTKVEEEIQTLSQVLAAKEKHLAELKRKLGISSLQEFKQNIAKGWQDVTATNAYKKTSETLSQAGQKASAAFSSVGSVITKKLEDVKNSPTFKSFEEKVENLKSKVGGAKPAGGDFGEVLNSTANATSTMTTEPPPEQMTESP
notes: Fusion expressed in yeast; also called full-length mD52 bait
B2: RING10 proteasome subunit library interactor (pAD-GAL4 construct, GenBank accession no. X62598) (other, UniProt P04386 761-881, looked up)
chain: PSALFGGANFNQSGNIADSSLSFTFTNSSNGPNLITTQTNSQALSQPIASSNVHDNFMNNEITASKIDDGNNSKPLSPGWTDQTAYNAFGITTGMFNTTTMDDVYNYLFDDEDTPPNPKKETTTLAFKFQHGVIAAVDSRASAGSYISALRVNKVIEINPYLLGTMSGCAADCQYWERLLAKECRLYYLRNGERISVSAASKLLSNMMCQYRGMGLSMGSMICGWDKKGPGLYYVDEHGTRLSGNMFSTGSGNTYAYGVMDSGYRPNLSPEEAYDLGRRAIAYATHRDSYSGGVVNMYHMKEDGWVKVESTDVSDLLHQYREANQ
notes: False positive of the Hf7c screen
B3: hD53 library interactor, pAD-GAL4 clone beginning at nt 204 of the hD53 cDNA (Leu9) (other)
chain: PSALFGGANFNQSGNIADSSLSFTFTNSSNGPNLITTQTNSQALSQPIASSNVHDNFMNNEITASKIDDGNNSKPLSPGWTDQTAYNAFGITTGMFNTTTMDDVYNYLFDDEDTPPNPKKELETEPLQGTDEDAVASADFSSMLSEEEKEELKAELVQLEDEITTLRQVLSAKERHLVEIKQKLGMNLMNELKQNFSKSWHDMQTTTAYKKTHETLSHAGQKATAAFSNVGTAISKKFGDMSYSIRHSISMPAMRNSPTFKSFEERVETTVTSLKTKVGGTNPNGGSFEEVLSSTAHASAQSLAGGSRRTKEEELQC
notes: range 761-881; The clone lacks hD53 residues 1-8 (starts at Leu9); Found with the hD53 bait in Y190 and with the hD52 bait in Hf7c; also called nt 204 (Leu^9)
B4: hD52 library interactor, pAD-GAL4 clone beginning at nt 60 of the hD52 cDNA (<Met1) (other)
chain: PSALFGGANFNQSGNIADSSLSFTFTNSSNGPNLITTQTNSQALSQPIASSNVHDNFMNNEITASKIDDGNNSKPLSPGWTDQTAYNAFGITTGMFNTTTMDDVYNYLFDDEDTPPNPKKEMDRGEQGLLRTDPVPEEGEDVAATISATETLSEEEQEELRRELAKVEEEIQTLSQVLAAKEKHLAEIKRKLGINSLQELKQNIAKGWQDVTATSAYKKTSETLSQAGQKASAAFSSVGSVITKKLEDVKNSPTFKSFEEKVENLKSKVGGTKPAGGDFGEVLNSAANASATTTEPLPEKTQESL
notes: range 761-881; also called nt 60 (<Met^1)
B5: mD52(1-95) bait (GAL4 DNA-binding domain fusion, pAS2-1mD52(1-95)) (other)
chain: MKLLSSIEQACDICRLKKLKCSKEKPKCAKCLKNNWECRYSPKTKRSPLTRAHLTEVESRLERLEQLFLLIFPREDLDMILKMDSLQDIKALLTGLFVQDNVNKDAVTDRLASVETDMPLTLRQHRISATSSSEESSNKGQRQLTVSMDRGEQGLLKTEPVAEEGEDAVTMLSAPEALTEEEQEELRRELTKVEEEIQTLSQVLAAKEKHLAELKRKLGISSLQEFKQNIAKGWQDVTATNA
notes: also called N-terminal half of mD52
B6: hD52 bait (GAL4 DNA-binding domain fusion, pAS2-1hD52) (other)
chain: MKLLSSIEQACDICRLKKLKCSKEKPKCAKCLKNNWECRYSPKTKRSPLTRAHLTEVESRLERLEQLFLLIFPREDLDMILKMDSLQDIKALLTGLFVQDNVNKDAVTDRLASVETDMPLTLRQHRISATSSSEESSNKGQRQLTVSMDRGEQGLLRTDPVPEEGEDVAATISATETLSEEEQEELRRELAKVEEEIQTLSQVLAAKEKHLAEIKRKLGINSLQELKQNIAKGWQDVTATSAYKKTSETLSQAGQKASAAFSSVGSVITKKLEDVKNSPTFKSFEEKVENLKSKVGGTKPAGGDFGEVLNSAANASATTTEPLPEKTQESL
notes: Fusion expressed in yeast; also called full-length hD52 bait

What was measured:
[1] = target: T1, hD53 interactor (GAL4 activation domain fusion, pACT2hD53) (human, UniProt P04386 768-881 (Saccharomyces cerevisiae entry)); experiment: yeast two-hybrid, Y190 co-transfectants, HIS3/lacZ reporters; interactor (GAL4-AD fusion) against bait (GAL4-DB fusion)
T1 construct: range 768-881
T1 sequence: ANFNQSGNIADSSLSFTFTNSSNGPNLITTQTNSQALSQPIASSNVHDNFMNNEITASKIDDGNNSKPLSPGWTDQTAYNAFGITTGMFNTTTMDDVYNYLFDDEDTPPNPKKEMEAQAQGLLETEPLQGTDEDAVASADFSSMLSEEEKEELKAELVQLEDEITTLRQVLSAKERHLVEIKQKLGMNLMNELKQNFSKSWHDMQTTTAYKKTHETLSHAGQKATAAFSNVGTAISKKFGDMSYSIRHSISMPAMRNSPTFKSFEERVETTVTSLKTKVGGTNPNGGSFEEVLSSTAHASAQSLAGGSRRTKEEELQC
Description: (§1) Interactions between baits and interactors were assessed by qualitatively and/or quantitatively determining HIS3 and/or lacZ reporter gene activity in Y190 co-transfectants.
(§2) Interactions between D52-like proteins within the yeast two-hybrid system, as measured by quantitative β-galactosidase assays. […] Three (or two*) colonies from each co-transfected Y190 strain were cultured in the absence of histidine, and assayed separately for β-galactosidase activity (see Methods). The mean number of β-galactosidase activity units obtained for each co-transfection is presented, ± the standard error.

[2] = target: T2, hD54+ins2 interactor (GAL4 activation domain fusion, pACT2hD54+ins2) (human, UniProt P04386 768-881 (Saccharomyces cerevisiae entry)); experiment: as above
T2 construct: range 768-881
Description: as §1, §2

[3] = target: T3, mD52(1-163) interactor (GAL4 activation domain fusion, pACT2mD52(1-163)) (mouse, UniProt P04386 768-881 (Saccharomyces cerevisiae entry)); experiment: as above
T3 construct: range 768-881
T3 sequence: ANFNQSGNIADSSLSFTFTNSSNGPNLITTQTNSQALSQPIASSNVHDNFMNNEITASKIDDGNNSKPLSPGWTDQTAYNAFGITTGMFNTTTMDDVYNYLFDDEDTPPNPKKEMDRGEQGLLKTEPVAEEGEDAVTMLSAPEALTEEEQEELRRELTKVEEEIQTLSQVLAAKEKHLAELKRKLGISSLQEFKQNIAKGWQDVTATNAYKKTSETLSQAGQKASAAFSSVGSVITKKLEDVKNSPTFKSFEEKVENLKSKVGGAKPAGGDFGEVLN
Description: as §1, §2

[4] = target: T4, hD54-ins2 interactor (GAL4 activation domain fusion, pACT2hD54-ins2) (human, UniProt P04386 768-881 (Saccharomyces cerevisiae entry)); experiment: as above
T4 construct: range 768-881
Description: as §1, §2

[5] = target: T5, hD52 interactor (GAL4 activation domain fusion, pAD-GAL4hD52) (human, UniProt P04386 761-881 (Saccharomyces cerevisiae entry)); experiment: as above
T5 construct: range 761-881; also called hD52^c
T5 sequence: B4 chain
Description: as §1, §2

[6] = target: B6; experiment: yeast two-hybrid, retransfection of Hf7c
Description: (§3) Transformants were plated onto solid SD/-His-Trp-Leu (incorporating 35 mM 3-AT in the case of Y190 transformants) and incubated for up to 14 days at 30° C. After 3 initial days of growth, plates were inspected daily, and His+ colonies were transferred to SD/-His-Trp-Leu +0.07 M potassium phosphate pH 7+40 µg/ml X-gal plates which incorporated 35 mM 3-AT in the case of Y190 co-transformants. Colonies which remained His+, and in the case of Y190 co-transformants, were also lacZ+, were re-streaked onto fresh plates to check that all colonies were of uniform phenotype. After 6 days incubation at 30° C., yeast colonies were directly harvested, and plasmid DNA was isolated and used to transfect XL1 Blue. Mini-preparations of plasmid DNA were performed for at least 5 XL1 Blue colonies per transfection, with the results of restriction digests differentiating potential interactors from bait plasmids. […] Phenotypes of resulting co-transfectants were assayed quantitatively and/or qualitatively as described above.

[7] = target: T6, hD53 bait (GAL4 DNA-binding domain fusion, pAS2-1hD53) (human, UniProt P04386 1-147 (Saccharomyces cerevisiae entry)); experiment: yeast two-hybrid screening of a human breast carcinoma cDNA library in Y190 (His+ lacZ+)
T6 construct: Fusion expressed in yeast; also called full-length hD53 bait

[8] = target: B6; experiment: yeast two-hybrid screening of a human breast carcinoma cDNA library in Hf7c (His+)
Description: as §3

[9] = target: T1, hD53 interactor (GAL4 activation domain …); experiment: yeast two-hybrid in Y190, β-galactosidase assay
Description: Interactions between baits and interactors were assessed by qualitatively and/or quantitatively determining HIS3 and lacZ reporter gene activity in Y190 co-transfectants. Reporter gene activities were assessed qualitatively by observing the growth and color development of Y190 co-transfectants on solid SD media lacking His, Trp and Leu (SD/-His-Trp-Leu), and incorporating 0.07 M potassium phosphate pH 7, 35 mM 3-AT, and 40 µg/ml X-gal. For quantitative assessment of interactions, β-galactosidase activity was measured using the substrate o-nitrophenyl β-D-galactopyranoside (ONPG) in liquid cultures (SD/-His-Trp-Leu +35 mM 3-AT) of Y190 co-transfectants.

[10] = target: T7, histidyl t-RNA synthetase library interactor (pAD-GAL4 construct, EBML accession no. Z 11518) (human, UniProt P04386 761-881; P12081 2-509, limits assumed); experiment: yeast two-hybrid, retransfection of Hf7c
T7 construct: False positive of the Hf7c screen
T7 sequence (looked up): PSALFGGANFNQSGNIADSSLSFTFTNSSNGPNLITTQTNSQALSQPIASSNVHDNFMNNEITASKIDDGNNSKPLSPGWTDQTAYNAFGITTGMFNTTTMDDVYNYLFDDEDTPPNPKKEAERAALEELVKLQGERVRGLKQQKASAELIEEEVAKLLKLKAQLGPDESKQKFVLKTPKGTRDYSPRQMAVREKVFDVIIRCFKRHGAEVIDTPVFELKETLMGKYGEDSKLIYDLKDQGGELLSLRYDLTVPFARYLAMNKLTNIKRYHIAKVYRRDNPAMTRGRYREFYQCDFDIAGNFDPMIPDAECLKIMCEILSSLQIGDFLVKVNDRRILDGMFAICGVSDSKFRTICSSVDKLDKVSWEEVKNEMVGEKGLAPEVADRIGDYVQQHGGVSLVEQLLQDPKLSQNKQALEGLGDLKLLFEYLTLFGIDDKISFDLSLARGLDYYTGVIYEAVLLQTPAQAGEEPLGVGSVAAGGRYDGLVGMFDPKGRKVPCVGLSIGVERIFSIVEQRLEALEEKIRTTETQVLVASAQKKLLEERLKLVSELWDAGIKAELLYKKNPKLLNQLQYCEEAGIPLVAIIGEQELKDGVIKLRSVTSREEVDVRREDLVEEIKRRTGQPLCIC
Description: as §3

[11] = target: T8, eukaryotic initiation factor 4AII library interactor (pAD-GAL4 construct, DNA Database of Japan accession no. … (human, UniProt P04386 761-881; Q14240 1-407, limits assumed); experiment: yeast two-hybrid, retransfection of Hf7c
T8 construct: False positive of the Hf7c screen
Description: as §3

What does the source list for B1?
binding result [1]: binds; binding result [2]: binds; binding result [3]: binds; binding result [4]: binds; binding result [5]: binds

Does B2 bind [6]?
Result: no binding

Does B3 bind [7]?
Result: binds

Does B3 bind [8]?
Result: binds

Does B4 bind [8]?
Result: binds

Does B5 bind [9]?
Result: binds

What does the source list for B6?
binding result [10]: no binding; binding result [11]: no binding
